Experimental data reported in PMC11188837 (mAbs, 2024).
No end group written: not given here. *: point of attachment. FITC = O=C1OC2(c3ccc(O)cc3Oc3cc(O)ccc32)c2ccc(NC(=S)*)cc21; Ahx = NCCCCCC(=O)O

Tests used:
[1] = target: integrin αVβ6 ectodomain (human) (human, UniProt P06756-1;P18564-1); test: fluorescence polarisation
[2] = target: integrin αVβ8 ectodomain (human) (human, UniProt P06756-1;P26012-1); test: fluorescence polarisation
Sequence of integrin αVβ8 ectodomain (human) (P06756 31-992, chain 1 of 2): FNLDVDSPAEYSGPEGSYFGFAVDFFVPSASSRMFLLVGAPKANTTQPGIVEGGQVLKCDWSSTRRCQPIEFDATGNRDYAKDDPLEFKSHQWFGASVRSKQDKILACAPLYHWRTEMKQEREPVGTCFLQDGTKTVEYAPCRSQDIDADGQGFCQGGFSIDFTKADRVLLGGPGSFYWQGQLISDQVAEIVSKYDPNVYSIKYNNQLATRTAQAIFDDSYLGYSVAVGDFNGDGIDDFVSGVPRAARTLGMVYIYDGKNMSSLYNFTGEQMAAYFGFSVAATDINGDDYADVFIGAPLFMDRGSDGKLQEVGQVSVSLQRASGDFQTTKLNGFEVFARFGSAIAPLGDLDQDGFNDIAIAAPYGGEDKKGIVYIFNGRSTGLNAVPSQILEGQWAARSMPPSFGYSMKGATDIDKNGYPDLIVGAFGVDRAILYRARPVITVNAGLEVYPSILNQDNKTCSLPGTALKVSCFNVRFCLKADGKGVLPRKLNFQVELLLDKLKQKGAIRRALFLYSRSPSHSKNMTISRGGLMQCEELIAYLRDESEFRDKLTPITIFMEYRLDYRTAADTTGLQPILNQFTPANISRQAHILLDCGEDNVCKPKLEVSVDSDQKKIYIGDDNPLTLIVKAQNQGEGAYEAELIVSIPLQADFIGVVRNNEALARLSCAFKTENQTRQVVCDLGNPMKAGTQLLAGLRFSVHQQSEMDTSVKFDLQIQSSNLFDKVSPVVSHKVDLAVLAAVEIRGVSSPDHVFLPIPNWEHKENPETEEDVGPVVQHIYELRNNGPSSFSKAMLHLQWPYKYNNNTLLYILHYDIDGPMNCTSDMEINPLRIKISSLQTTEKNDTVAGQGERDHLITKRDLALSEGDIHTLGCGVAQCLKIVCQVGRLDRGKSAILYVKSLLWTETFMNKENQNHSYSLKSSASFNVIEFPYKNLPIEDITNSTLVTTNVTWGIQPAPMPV
Sequence of integrin αVβ8 ectodomain (human) (P26012 43-684, chain 2 of 2): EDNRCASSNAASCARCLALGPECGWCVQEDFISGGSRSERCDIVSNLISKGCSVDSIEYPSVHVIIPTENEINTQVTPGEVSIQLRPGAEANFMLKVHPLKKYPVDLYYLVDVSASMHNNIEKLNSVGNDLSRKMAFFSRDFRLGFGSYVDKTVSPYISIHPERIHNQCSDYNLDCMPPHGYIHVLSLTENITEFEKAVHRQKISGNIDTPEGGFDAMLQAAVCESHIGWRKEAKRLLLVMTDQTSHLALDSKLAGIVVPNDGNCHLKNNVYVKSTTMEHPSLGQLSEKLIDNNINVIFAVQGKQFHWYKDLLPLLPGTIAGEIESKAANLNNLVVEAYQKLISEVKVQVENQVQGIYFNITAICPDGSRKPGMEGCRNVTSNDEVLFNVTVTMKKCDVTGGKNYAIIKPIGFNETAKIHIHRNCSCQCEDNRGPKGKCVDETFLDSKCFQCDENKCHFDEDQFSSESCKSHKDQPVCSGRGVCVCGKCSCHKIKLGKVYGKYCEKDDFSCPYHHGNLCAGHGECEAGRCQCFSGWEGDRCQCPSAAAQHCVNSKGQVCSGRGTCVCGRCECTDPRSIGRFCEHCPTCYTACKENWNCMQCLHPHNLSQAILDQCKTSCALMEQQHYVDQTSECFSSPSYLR

Sequence of integrin αVβ6 ectodomain (human) (P06756 31-992, chain 1 of 2): as the sequence (P06756 31-992, chain 1 of 2) above
Sequence of integrin αVβ6 ectodomain (human) (P18564 22-709, chain 2 of 2): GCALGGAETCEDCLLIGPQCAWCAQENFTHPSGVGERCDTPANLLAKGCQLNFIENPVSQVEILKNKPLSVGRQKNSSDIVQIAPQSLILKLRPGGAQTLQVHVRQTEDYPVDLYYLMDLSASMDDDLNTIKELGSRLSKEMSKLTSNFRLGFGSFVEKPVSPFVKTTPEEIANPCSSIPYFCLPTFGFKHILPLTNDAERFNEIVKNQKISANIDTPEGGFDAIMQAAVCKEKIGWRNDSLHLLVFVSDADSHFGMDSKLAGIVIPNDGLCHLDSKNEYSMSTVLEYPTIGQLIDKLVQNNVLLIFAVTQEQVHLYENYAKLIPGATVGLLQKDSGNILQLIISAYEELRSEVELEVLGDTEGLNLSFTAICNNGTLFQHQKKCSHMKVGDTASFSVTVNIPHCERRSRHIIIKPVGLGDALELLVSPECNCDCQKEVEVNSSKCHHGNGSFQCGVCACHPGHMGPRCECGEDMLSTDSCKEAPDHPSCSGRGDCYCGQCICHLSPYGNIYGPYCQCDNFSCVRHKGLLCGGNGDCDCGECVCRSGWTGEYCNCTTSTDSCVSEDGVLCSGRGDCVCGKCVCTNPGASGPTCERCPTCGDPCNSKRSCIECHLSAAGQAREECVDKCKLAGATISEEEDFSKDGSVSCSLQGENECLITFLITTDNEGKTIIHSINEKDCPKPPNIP

binding result [1]: binds
binding result [2]: binds
Binder: {FITC-Ahx}-GRGDLGRLKK [FITC-labeled aminocaproic acid-GRGDLGRLKK peptide]
